Target: T1, Orai3-L2 (aa 111–161, mutation C118G) (human, UniProt Q9BRQ5 111-161, C118G, conjugated to amino-functionalized AFM cantilever tips via a flexible NHS-PEG18-acetal cross-linker)
T1 construct: human Orai3 loop2, aa 111–161; also called Orai3-loop2; source: synthetic peptide (custom-synthesized, >95% purity, Synpeptide)
Assay: AFM single-molecule force spectroscopy; loop2 peptide tethered to the cantilever tip via a PEG linker, Orai1-NT peptide immobilised on silicon chips; room temperature, HBS buffer (150 mM NaCl, 5 mM Hepes); pulling velocity 50-8000 nm/s; koff from the Bell-Evans single energy barrier model
Details: both partners purified

B1: Orai1-NT 70–91 (peptide)
peptide: SMQALSWRKLYLSRAKLKASSRC
modifications: added C-terminal cysteine for site-specific coupling; immobilized on silicon chips via NHS-PEG27-maleimide linkers
notes: human Orai1 N terminus, aa 70–91; added C-terminal cysteine for site-specific coupling (told in words); also called Orai1 70–91; non-truncated Orai1 NT; source: synthetic peptide (custom-synthesized, >95% purity, DgPeptides)
binding result: binds
